Data set [1] concerns the target T1, CS (CTC1-STN1) (Homo sapiens, UniProt Q2NKJ3;Q9H668 1-1217;1-368). In words: EMSA; apparent Kd; EMSA: 25 mM Tris-HCl pH 8.0, 100 mM NaCl, 1 mM DTT; 0.1 nM DNA, 30 min RT (Kd(app): 0.01 nM DNA, 18 h, 4 °C). smFRET: 25 mM Tris-HCl pH 8.0, 150 mM NaCl, 1 mM D. The following applies: protein: recombinant; tags: FLAG-CTC1, FLAG-STN1; copies: 1;1; label: 32P. For orientation: A gel shift assay detects complexes by their altered migration in electrophoresis.

Data set [2] has as its target T2, CST (CTC1-STN1-TEN1) (Homo sapiens, UniProt Q2NKJ3;Q9H668;Q86WV5 1-1217;1-368;1-123). Described as above. The following applies: protein: recombinant; tags: FLAG-CTC1, FLAG-STN1, untagged TEN1; copies: 1;1;1; label: 32P.
Data set [3] concerns the target T2, CST (CTC1-STN1-TEN1). In words: EMSA; EMSA: 25 mM Tris-HCl pH 8.0, 100 mM NaCl, 1 mM DTT; 0.1 nM DNA, 30 min RT (Kd(app): 0.01 nM DNA, 18 h, 4 °C). smFRET: 25 mM Tris-HCl pH 8.0, 150 mM NaCl, 1 mM D. Conditions: protein: recombinant; tags: FLAG-CTC1, FLAG-STN1, untagged TEN1; copies: 1;1;1; label: 32P; hairpin, 15 bp stem, T5 loop, 3' overhang 18 nt.
For data set [4], the target named is T1, CS (CTC1-STN1). In words: EMSA; about 5-fold less efficient than CST; EMSA: 25 mM Tris-HCl pH 8.0, 100 mM NaCl, 1 mM DTT; 0.1 nM DNA, 30 min RT (Kd(app): 0.01 nM DNA, 18 h, 4 °C). smFRET: 25 mM Tris-HCl pH 8.0, 150 mM NaCl, 1 mM D. Conditions: protein: recombinant; tags: FLAG-CTC1, FLAG-STN1; copies: 1;1; label: 32P; hairpin, 15 bp stem, T5 loop, 3' overhang 18 nt.

Data set [5] has as its target T2, CST (CTC1-STN1-TEN1). In words: smFRET; 2 nM protein; dwell time 14.32 ± 0.81 (s; assigned from figure text); EMSA: 25 mM Tris-HCl pH 8.0, 100 mM NaCl, 1 mM DTT; 0.1 nM DNA, 30 min RT (Kd(app): 0.01 nM DNA, 18 h, 4 °C). smFRET: 25 mM Tris-HCl pH 8.0, 150 mM NaCl, 1 mM D. Conditions: protein: recombinant; tags: FLAG-CTC1, FLAG-STN1, untagged TEN1; copies: 1;1;1; label: strand 1 3'-Cy3; strand 2 5'-Cy5 and 3'-biotin; 18 bp duplex, 3' overhang 18 nt.

For data set [6], the target named is T1, CS (CTC1-STN1). Put plainly: smFRET; 2 nM protein, imaged immediately; dwell time 8.22 ± 0.64 (s; assigned from figure text), 43% lower than CST; lost after flushing; EMSA: 25 mM Tris-HCl pH 8.0, 100 mM NaCl, 1 mM DTT; 0.1 nM DNA, 30 min RT (Kd(app): 0.01 nM DNA, 18 h, 4 °C). smFRET: 25 mM Tris-HCl pH 8.0, 150 mM NaCl, 1 mM D. Conditions: protein: recombinant; tags: FLAG-CTC1, FLAG-STN1; copies: 1;1; label: strand 1 3'-Cy3; strand 2 5'-Cy5 and 3'-biotin; 18 bp duplex, 3' overhang 18 nt.

The values below come from paper PMC6053418, “CTC1-STN1 terminates telomerase while STN1-TEN1 enables C-strand synthesis during telomere replication in colon cancer cells”.

T1 sequence (Q2NKJ3 whole entry, chain 1 of 2): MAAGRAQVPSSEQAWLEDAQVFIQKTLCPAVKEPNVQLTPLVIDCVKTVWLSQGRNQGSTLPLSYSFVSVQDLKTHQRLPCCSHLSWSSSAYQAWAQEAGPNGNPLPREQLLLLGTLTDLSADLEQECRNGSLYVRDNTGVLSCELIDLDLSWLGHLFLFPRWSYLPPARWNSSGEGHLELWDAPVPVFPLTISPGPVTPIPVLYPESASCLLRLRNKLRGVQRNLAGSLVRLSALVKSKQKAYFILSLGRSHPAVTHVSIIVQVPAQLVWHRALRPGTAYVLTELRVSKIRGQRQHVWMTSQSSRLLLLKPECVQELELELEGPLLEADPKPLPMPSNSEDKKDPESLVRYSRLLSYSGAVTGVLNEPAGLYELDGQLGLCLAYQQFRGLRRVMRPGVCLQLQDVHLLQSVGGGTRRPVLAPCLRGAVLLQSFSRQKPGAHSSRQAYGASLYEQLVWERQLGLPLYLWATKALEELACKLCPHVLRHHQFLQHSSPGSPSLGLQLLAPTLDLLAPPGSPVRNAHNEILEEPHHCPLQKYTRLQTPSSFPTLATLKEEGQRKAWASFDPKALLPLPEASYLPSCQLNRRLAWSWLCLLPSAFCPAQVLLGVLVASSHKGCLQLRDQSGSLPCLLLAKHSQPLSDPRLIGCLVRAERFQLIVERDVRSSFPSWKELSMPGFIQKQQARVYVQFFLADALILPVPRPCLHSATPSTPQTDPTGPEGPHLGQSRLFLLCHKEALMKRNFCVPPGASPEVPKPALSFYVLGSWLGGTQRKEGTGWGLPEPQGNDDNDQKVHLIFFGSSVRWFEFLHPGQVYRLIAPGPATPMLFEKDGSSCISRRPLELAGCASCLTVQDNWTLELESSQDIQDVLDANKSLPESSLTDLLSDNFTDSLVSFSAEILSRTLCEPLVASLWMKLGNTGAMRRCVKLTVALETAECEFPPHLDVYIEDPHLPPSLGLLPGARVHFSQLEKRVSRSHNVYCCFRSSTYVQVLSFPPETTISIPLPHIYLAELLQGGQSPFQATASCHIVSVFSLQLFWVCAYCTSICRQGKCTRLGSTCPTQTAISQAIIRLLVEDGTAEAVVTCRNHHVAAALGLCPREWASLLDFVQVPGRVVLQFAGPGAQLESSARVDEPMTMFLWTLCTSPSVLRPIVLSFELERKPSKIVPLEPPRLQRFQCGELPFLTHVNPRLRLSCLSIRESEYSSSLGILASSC
T1 sequence (Q9H668 whole entry, chain 2 of 2): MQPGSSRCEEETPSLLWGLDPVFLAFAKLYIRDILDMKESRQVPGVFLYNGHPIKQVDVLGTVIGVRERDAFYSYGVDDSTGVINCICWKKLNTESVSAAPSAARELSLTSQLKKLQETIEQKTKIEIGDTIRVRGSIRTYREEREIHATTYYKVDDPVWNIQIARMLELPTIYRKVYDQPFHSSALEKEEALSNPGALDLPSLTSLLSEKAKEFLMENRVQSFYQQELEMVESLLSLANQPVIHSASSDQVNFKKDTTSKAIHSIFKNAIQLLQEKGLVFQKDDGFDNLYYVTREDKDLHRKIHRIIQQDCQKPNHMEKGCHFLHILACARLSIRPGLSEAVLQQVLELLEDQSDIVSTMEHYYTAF
T2 sequence (Q2NKJ3 whole entry, chain 1 of 3): as the sequence (Q2NKJ3 whole entry, chain 1 of 2) above
T2 sequence (Q9H668 whole entry, chain 2 of 3): as the sequence (Q9H668 whole entry, chain 2 of 2) above
T2 sequence (Q86WV5 whole entry, chain 3 of 3): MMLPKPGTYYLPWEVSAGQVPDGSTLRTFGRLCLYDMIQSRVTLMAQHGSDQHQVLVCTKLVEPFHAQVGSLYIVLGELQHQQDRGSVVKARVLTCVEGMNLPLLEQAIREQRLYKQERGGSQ

As to GGTTAGGGTTAGGGTTAG (ssDNA) [Tel-18], the Kd turned out to be 1040 ± 460 pM in data set [1] and 210 ± 70 pM in data set [2].

Take AGCGTATCCGTTCAGTTGAGCGTATCCGTTCAGTTGAGCGTATCCGTT (ssDNA) [NonTel-48]: the Kd in data set [1] amounted to 80 ± 50 pM; in data set [2], 10 ± 5 pM.

B1: NonTel fold-back 18 nt 3' overhang (structured_DNA)
DNA: ACGACTGCATCTAGCTTTTTGCTAGATGCAGTCGTAGCGTATCCGTTCAGTTG
Take B1: the binding result in data set [3] and in data set [4] was “binds” each time.

B2: smFRET junction, 18 nt overhang (dsDNA)
DNA 1: TGGCGACGGCAGCGAGGCAGCGTATCCGTTCAGTTG
DNA 2: GCCTCGCTGCCGTCGCCA
Turning to B2, the binding result in data set [5] and in data set [6] was “binds” each time.

Take GGTTAGGGTTAGGGTTAGGGTTAGGGTTAGGGTTAG (ssDNA) [Tel-36]: the results for the Kd in data set [1] and in data set [2] were 330 ± 80 pM and 20 ± 30 pM, respectively.
